Reference: US20250228958A1, “TSP1 INHIBITOR” (Daiichi Sankyo Company, Limited, priority 2022, published 2025)
Positions of bridges follow the written chain, without caps; N, C: chain ends. Non-standard residues stand in square brackets, D forms with d. No end group written: not given here. 2Nal = N[C@@H](Cc1ccc2ccccc2c1)C(=O)O; Gly(cPent) = N[C@H](C(=O)O)C1CCCC1; 4Pal = N[C@@H](Cc1ccncc1)C(=O)O; Agb = N=C(N)NCC[C@H](N)C(=O)O; Pen = CC(C)(S)[C@H](N)C(=O)O; Phg = N[C@H](C(=O)O)c1ccccc1; Tle = CC(C)(C)[C@H](N)C(=O)O; hCys = N[C@@H](CCS)C(=O)O

B1: Peptide-127 (peptide)
peptide: [2Nal]R[hCys]GRDW[hCys]RW[Gly(cPent)]C-NH2
modifications: bridge 3-8, N-12; not fully specified (N-terminus, bridges)
B2: Peptide-129 (peptide)
peptide: [2Nal]R[hCys]GRDWCRW[Gly(cPent)]C-NH2
modifications: disulfide 3-8; bridge N-12; not fully specified (N-terminus, bridges)
B3: Peptide-135 (peptide)
peptide: [2Nal]R[Pen]GRDW[hCys]RW[Gly(cPent)]C-NH2
modifications: disulfide 3-8; bridge N-12; not fully specified (N-terminus, bridges)
B4: Peptide-134 (peptide)
peptide: [2Nal]R[hCys]GRDW[Pen]RW[Gly(cPent)]C-NH2
modifications: disulfide 3-8; bridge N-12; not fully specified (N-terminus, bridges)
B5: Peptide-138 (peptide)
peptide: [2Nal]RCGRDW[Pen]RW[Gly(cPent)]C-NH2
modifications: disulfide 3-8; bridge N-12; not fully specified (N-terminus, bridges)
B6: Peptide-128 (peptide)
peptide: [2Nal]RCGRDWCRW[Gly(cPent)]C-NH2
modifications: disulfide 3-8; bridge N-12; not fully specified (N-terminus, bridges)
B7: Peptide-12 (peptide)
peptide: [2Nal]R[hCys]GRNW[hCys]RWVC-NH2
modifications: disulfide 3-8; bridge N-12; not fully specified (N-terminus, bridges)
B8: Peptide-132 (peptide)
peptide: [2Nal]R[hCys]GRDWCRW[Gly(cPent)]C-NH2
modifications: bridge 3-8, N-12; not fully specified (N-terminus, bridges)
B9: Peptide-3 (peptide)
peptide: [2Nal][Phg][hCys]G[Agb]NW[hCys]RW[Gly(cPent)]C-NH2
modifications: disulfide 3-8; bridge N-12; not fully specified (N-terminus, bridges)
B10: Peptide-8 (peptide)
peptide: [2Nal][Tle][hCys]GRNW[hCys]RW[Gly(cPent)]C-NH2
modifications: disulfide 3-8; bridge N-12; not fully specified (N-terminus, bridges)
B11: Peptide-115 (peptide)
peptide: [2Nal]RSG[Agb]NWVRW[Gly(cPent)]C
modifications: bridge N-12; not fully specified (N-terminus, C-terminus, bridges); also: C-terminus amide-bonded to a linker (not defined)
B12: Peptide-139 (peptide)
peptide: [2Nal]RCGRDW[Pen]RW[Gly(cPent)]C-NH2
modifications: bridge 3-8, N-12; not fully specified (N-terminus, bridges)
B13: Peptide-2 (peptide)
peptide: [2Nal][Agb][hCys]G[Agb]NW[hCys]RW[Gly(cPent)]C-NH2
modifications: disulfide 3-8; bridge N-12; not fully specified (N-terminus, bridges)
B14: Peptide-11 (peptide)
peptide: [2Nal]R[hCys]GRDW[hCys]RW[Gly(cPent)]C-NH2
modifications: disulfide 3-8; bridge N-12; not fully specified (N-terminus, bridges)
B15: Peptide-137 (peptide)
peptide: [2Nal]R[Pen]GRDWCRW[Gly(cPent)]C-NH2
modifications: bridge 3-8, N-12; not fully specified (N-terminus, bridges)
B16: Peptide-5 (peptide)
peptide: [2Nal]R[hCys]G[Agb]NW[hCys][4Pal]W[Gly(cPent)]C-NH2
modifications: disulfide 3-8; bridge N-12; not fully specified (N-terminus, bridges)
B17: Peptide-131 (peptide)
peptide: [2Nal]RCGRDW[hCys]RW[Gly(cPent)]C-NH2
modifications: bridge 3-8, N-12; not fully specified (N-terminus, bridges)
B18: Peptide-4 (peptide)
peptide: [2Nal]R[hCys]G[Agb]NW[hCys][Phg]W[Gly(cPent)]C-NH2
modifications: disulfide 3-8; bridge N-12; not fully specified (N-terminus, bridges)
B19: Peptide-7 (peptide)
peptide: [2Nal]R[hCys]GRNW[hCys]VW[Gly(cPent)]C-NH2
modifications: disulfide 3-8; bridge N-12; not fully specified (N-terminus, bridges)
B20: Peptide-136 (peptide)
peptide: [2Nal]R[hCys]GRDW[Pen]RW[Gly(cPent)]C-NH2
modifications: bridge 3-8, N-12; not fully specified (N-terminus, bridges)
B21: Peptide-133 (peptide)
peptide: [2Nal]R[Pen]GRDW[hCys]RW[Gly(cPent)]C-NH2
modifications: bridge 3-8, N-12; not fully specified (N-terminus, bridges)
B22: Peptide-1 (peptide)
peptide: [2Nal]R[hCys]G[Agb]NW[hCys]RW[Gly(cPent)]C-NH2
modifications: disulfide 3-8; bridge N-12; not fully specified (N-terminus, bridges)
B23: Peptide-9 (peptide)
peptide: [2Nal]R[hCys]G[Agb]DW[hCys]RW[Gly(cPent)]C-NH2
modifications: disulfide 3-8; bridge N-12; not fully specified (N-terminus, bridges)
B24: Peptide-126 (peptide)
peptide: [2Nal]RCGRDW[hCys]RW[Gly(cPent)]C-NH2
modifications: disulfide 3-8; bridge N-12; not fully specified (N-terminus, bridges)
B25: Peptide-125 (peptide)
peptide: [2Nal]R[hCys]GRDW[hCys]RW[Gly(cPent)]C-NH2
modifications: linker 3-8 via acetone bridge (-S-CH2-CO-CH2-S-); bridge N-12; not fully specified (N-terminus, bridges)
B26: Peptide-130 (peptide)
peptide: [2Nal]RCGRDWCRW[Gly(cPent)]C-NH2
modifications: bridge 3-8, N-12; not fully specified (N-terminus, bridges)

Each binder was assayed against Thrombospondin human platelet (Calbiochem, 605225) (human, UniProt P07996 19-1170) (assay: cell-based or functional assay).
Chain of Thrombospondin human platelet (Calbiochem, 605225) (P07996 19-1170 limits assumed): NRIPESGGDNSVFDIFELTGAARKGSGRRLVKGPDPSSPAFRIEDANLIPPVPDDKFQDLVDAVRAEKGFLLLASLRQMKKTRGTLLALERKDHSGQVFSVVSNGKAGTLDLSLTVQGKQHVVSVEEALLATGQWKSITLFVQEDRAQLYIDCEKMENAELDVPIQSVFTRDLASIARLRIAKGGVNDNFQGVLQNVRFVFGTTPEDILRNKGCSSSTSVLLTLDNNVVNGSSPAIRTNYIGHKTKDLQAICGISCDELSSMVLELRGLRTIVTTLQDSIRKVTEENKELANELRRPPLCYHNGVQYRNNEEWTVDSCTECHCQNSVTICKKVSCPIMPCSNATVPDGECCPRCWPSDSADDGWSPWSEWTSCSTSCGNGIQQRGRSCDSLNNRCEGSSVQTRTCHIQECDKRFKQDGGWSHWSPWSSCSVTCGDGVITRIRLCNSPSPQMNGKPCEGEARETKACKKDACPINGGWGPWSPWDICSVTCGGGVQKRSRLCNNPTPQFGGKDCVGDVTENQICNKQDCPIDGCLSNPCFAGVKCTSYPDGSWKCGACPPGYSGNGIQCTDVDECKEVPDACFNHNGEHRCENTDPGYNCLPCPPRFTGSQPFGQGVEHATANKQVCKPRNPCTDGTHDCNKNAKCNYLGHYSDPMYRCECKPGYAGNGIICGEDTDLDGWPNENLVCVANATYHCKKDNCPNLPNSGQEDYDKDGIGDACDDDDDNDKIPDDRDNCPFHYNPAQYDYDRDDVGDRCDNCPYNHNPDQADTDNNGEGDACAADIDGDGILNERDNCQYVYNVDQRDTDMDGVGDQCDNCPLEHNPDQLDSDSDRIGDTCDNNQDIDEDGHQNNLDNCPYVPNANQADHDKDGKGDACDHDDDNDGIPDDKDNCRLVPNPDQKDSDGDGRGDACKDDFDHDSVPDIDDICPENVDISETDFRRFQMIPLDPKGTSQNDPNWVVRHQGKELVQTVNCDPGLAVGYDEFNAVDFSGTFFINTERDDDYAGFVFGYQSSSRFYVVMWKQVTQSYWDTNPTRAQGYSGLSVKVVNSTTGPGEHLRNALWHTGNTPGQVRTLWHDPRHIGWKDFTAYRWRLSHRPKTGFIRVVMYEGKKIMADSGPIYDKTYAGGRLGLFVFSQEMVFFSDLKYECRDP

Row | Binder | IC50 for inhibition of cell adhesion (HUVEC to coated human TSP1)
1 | B1 | 11.6 nM
2 | B2 | 43.7 nM
3 | B3 | 208 nM
4 | B4 | 102 nM
5 | B5 | 92.5 nM
6 | B6 | 8.4 nM
7 | B7 | 18.6 nM
8 | B8 | 7 nM
9 | B9 | 29.9 nM
10 | B10 | 12.6 nM
11 | B11 | 17.5 nM
12 | B12 | 30.9 nM
13 | B13 | 20 nM
14 | B14 | 26 nM
15 | B15 | 80.6 nM
16 | B16 | 23.6 nM
17 | B17 | 14.2 nM
18 | B18 | 33.8 nM
19 | B19 | 31.1 nM
20 | B20 | 162 nM
21 | B21 | 125 nM
22 | B22 | 12.6 nM
23 | B23 | 22.4 nM
24 | B24 | 10.8 nM
25 | B25 | 305 nM
26 | B26 | 7.7 nM
